We go through 94 variants from the supplement of paper PMC10567573.

The chains are these.
B1: ATL3 (parent)
chain: EKALASILLQDHIRDLDVVVVSVA
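Note: lentivirally expressed fusions sorted by FACS into six bins by GFP to DsRed ratio, PSI derived from sequencing read proportions per bin multiplied by bin number.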

Variants of B1 are the subject of the data set. Put plainly: protein stability index of a GFP-peptide fusion (GPS, HEK-293T) (PSI 1-6); higher = more stable. The settings on record: c terminus: a fixed tail appended.
For the variant EKALASILKQDHIRDLDVVVVSVA [L9K], the protein stability index stood at 3.25.

In the case of EKALASILMQDHIRDLDVVVVSVA [L9M], the protein stability index was determined as 2.46.

EKALASILEQDHIRDLDVVVVSVA [L9E]: the protein stability index is 3.11.

Take EKALASILHQDHIRDLDVVVVSVA [L9H]: the protein stability index is 2.71.

For EKALTSILLQDHIRDLDVVVVSVA [A5T], the protein stability index was 2.26.

As to EKALESILLQDHIRDLDVVVVSVA [A5E], the protein stability index is 2.29.

For the variant EKALQSILLQDHIRDLDVVVVSVA [A5Q], the protein stability index is 3.29.

Turning to EKALHSILLQDHIRDLDVVVVSVA [A5H], the protein stability index amounted to 1.35.

For the variant EKALKSILLQDHIRDLDVVVVSVA [A5K], the protein stability index was 1.74.

For the variant EKALWSILLQDHIRDLDVVVVSVA [A5W], the protein stability index was found to be 2.08.

Consider EKALVSILLQDHIRDLDVVVVSVA [A5V], for which the protein stability index was 2.9.

In the case of EKALNSILLQDHIRDLDVVVVSVA [A5N], the protein stability index came out at 3.63.

Regarding EKALASILLQDHIRILDVVVVSVA [D15I], the protein stability index worked out at 2.33.

Take EKALASILLQDHIRVLDVVVVSVA [D15V]: the protein stability index was found to be 2.55.

On to EKALASILLQDHIRWLDVVVVSVA [D15W], for which the protein stability index was found to be 2.5.

In the case of NKALASILLQDHIRDLDVVVVSVA [E1N], the protein stability index was determined as 2.93.

Regarding IKALASILLQDHIRDLDVVVVSVA [E1I], the protein stability index turned out to be 2.5.

Regarding RKALASILLQDHIRDLDVVVVSVA [E1R], the protein stability index worked out at 2.24.

Regarding HKALASILLQDHIRDLDVVVVSVA [E1H], the protein stability index was found to be 2.05.

As to GKALASILLQDHIRDLDVVVVSVA [E1G], the protein stability index worked out at 3.59.

For CKALASILLQDHIRDLDVVVVSVA [E1C], the protein stability index was 3.34.

For the variant EKALASINLQDHIRDLDVVVVSVA [L8N], the protein stability index came out at 1.04.

Consider EKALASIILQDHIRDLDVVVVSVA [L8I], for which the protein stability index came out at 2.89.

As for EKALASIALQDHIRDLDVVVVSVA [L8A], the protein stability index was 2.99.

EKALASIGLQDHIRDLDVVVVSVA [L8G]: the protein stability index stood at 2.62.

As for EKALASIELQDHIRDLDVVVVSVA [L8E], the protein stability index stood at 1.98.

For the variant EKALASIWLQDHIRDLDVVVVSVA [L8W], the protein stability index came out at 3.89.

Take EKALASIKLQDHIRDLDVVVVSVA [L8K]: the protein stability index turned out to be 1.14.

With EKALASIPLQDHIRDLDVVVVSVA [L8P], the protein stability index amounted to 2.34.

Turning to EKALASIQLQDHIRDLDVVVVSVA [L8Q], the protein stability index came to 2.63.

In the case of EKALASITLQDHIRDLDVVVVSVA [L8T], the protein stability index was 1.55.

On to EKALASILLQDHIRDLDDVVVSVA [V18D], for which the protein stability index is 2.74.

Consider EKALASILLQDHIRDLDCVVVSVA [V18C], for which the protein stability index was found to be 1.66.

Consider EKALAPILLQDHIRDLDVVVVSVA [S6P], for which the protein stability index was found to be 1.93.

On to EKALALILLQDHIRDLDVVVVSVA [S6L], for which the protein stability index came to 3.06.

Turning to EKALAKILLQDHIRDLDVVVVSVA [S6K], the protein stability index is 2.18.

In the case of EKYLASILLQDHIRDLDVVVVSVA [A3Y], the protein stability index was 1.09.

Turning to EKELASILLQDHIRDLDVVVVSVA [A3E], the protein stability index worked out at 1.51.

In the case of EKALASILLQDHIPDLDVVVVSVA [R14P], the protein stability index was 1.55.

Take EKALASILLQDHIFDLDVVVVSVA [R14F]: the protein stability index was 3.13.

With EKALASILLQDHIDDLDVVVVSVA [R14D], the protein stability index amounted to 2.15.

Consider EKALASILLQDHIWDLDVVVVSVA [R14W], for which the protein stability index worked out at 3.58.

Turning to EKALASILLQDHILDLDVVVVSVA [R14L], the protein stability index amounted to 3.36.

Regarding EKALASILLQDHINDLDVVVVSVA [R14N], the protein stability index was 3.67.

On to EKALASILLQDHIKDLDVVVVSVA [R14K], for which the protein stability index amounted to 3.11.

As for EKALASILLQDHITDLDVVVVSVA [R14T], the protein stability index is 1.49.

Take EKALASILLQDHIRDDDVVVVSVA [L16D]: the protein stability index stood at 1.67.

Turning to EKALASILLQDHIRDKDVVVVSVA [L16K], the protein stability index came to 1.23.

For the variant EKALASILLQDHIRDNDVVVVSVA [L16N], the protein stability index was 1.46.

On to EKALASILLQDHIRDPDVVVVSVA [L16P], for which the protein stability index turned out to be 1.57.

Take EKALASILLQDHIRDADVVVVSVA [L16A]: the protein stability index came to 1.31.

As for EKALASILLQDHIRDRDVVVVSVA [L16R], the protein stability index was 1.03.

Regarding EKALASILLQDHIRDSDVVVVSVA [L16S], the protein stability index amounted to 2.37.

EKALASILLQDHIRDQDVVVVSVA [L16Q]: the protein stability index worked out at 1.37.

Take EKALASELLQDHIRDLDVVVVSVA [I7E]: the protein stability index amounted to 2.37.

Turning to EKALASKLLQDHIRDLDVVVVSVA [I7K], the protein stability index is 2.32.

With EKALASRLLQDHIRDLDVVVVSVA [I7R], the protein stability index came to 2.08.

For EKALASHLLQDHIRDLDVVVVSVA [I7H], the protein stability index stood at 2.31.

Consider EKALASPLLQDHIRDLDVVVVSVA [I7P], for which the protein stability index amounted to 3.2.

EKALASSLLQDHIRDLDVVVVSVA [I7S]: the protein stability index came to 2.85.

EKALASNLLQDHIRDLDVVVVSVA [I7N]: the protein stability index stood at 1.31.

For EKALASYLLQDHIRDLDVVVVSVA [I7Y], the protein stability index is 2.15.

With EKALASTLLQDHIRDLDVVVVSVA [I7T], the protein stability index is 2.13.

Regarding EKALASALLQDHIRDLDVVVVSVA [I7A], the protein stability index came out at 2.62.

In the case of EKALASDLLQDHIRDLDVVVVSVA [I7D], the protein stability index came to 2.51.

With EKALASLLLQDHIRDLDVVVVSVA [I7L], the protein stability index is 1.97.

For EKALASILLQEHIRDLDVVVVSVA [D11E], the protein stability index came to 3.13.

Regarding EKALASILLQKHIRDLDVVVVSVA [D11K], the protein stability index was determined as 3.25.

For EKALASILLQPHIRDLDVVVVSVA [D11P], the protein stability index amounted to 3.03.

Take EKALASILLQGHIRDLDVVVVSVA [D11G]: the protein stability index was 3.66.

Take EDALASILLQDHIRDLDVVVVSVA [K2D]: the protein stability index stood at 2.78.

For the variant EYALASILLQDHIRDLDVVVVSVA [K2Y], the protein stability index was 2.98.

For the variant ERALASILLQDHIRDLDVVVVSVA [K2R], the protein stability index came to 1.3.

As for EKAEASILLQDHIRDLDVVVVSVA [L4E], the protein stability index was 1.39.

Regarding EKAPASILLQDHIRDLDVVVVSVA [L4P], the protein stability index was 1.25.

Consider EKAAASILLQDHIRDLDVVVVSVA [L4A], for which the protein stability index stood at 1.45.

For the variant EKAVASILLQDHIRDLDVVVVSVA [L4V], the protein stability index was determined as 3.38.

In the case of EKAKASILLQDHIRDLDVVVVSVA [L4K], the protein stability index is 3.04.

In the case of EKAYASILLQDHIRDLDVVVVSVA [L4Y], the protein stability index came out at 1.83.

With EKADASILLQDHIRDLDVVVVSVA [L4D], the protein stability index stood at 2.61.

EKAQASILLQDHIRDLDVVVVSVA [L4Q]: the protein stability index was determined as 1.69.

For the variant EKATASILLQDHIRDLDVVVVSVA [L4T], the protein stability index turned out to be 1.37.

For the variant EKACASILLQDHIRDLDVVVVSVA [L4C], the protein stability index was 1.47.

EKAHASILLQDHIRDLDVVVVSVA [L4H]: the protein stability index came to 1.05.

Consider EKALASILLQDPIRDLDVVVVSVA [H12P], for which the protein stability index is 2.97.

Regarding EKALASILLQDIIRDLDVVVVSVA [H12I], the protein stability index is 3.19.

With EKALASILLQDGIRDLDVVVVSVA [H12G], the protein stability index is 4.08.

As to EKALASILLQDLIRDLDVVVVSVA [H12L], the protein stability index was 2.48.

EKALASILLQDEIRDLDVVVVSVA [H12E]: the protein stability index was determined as 2.17.

EKALASILLQDTIRDLDVVVVSVA [H12T]: the protein stability index was determined as 2.26.

As to EKALASILLQDHSRDLDVVVVSVA [I13S], the protein stability index worked out at 1.26.

As to EKALASILLQDHYRDLDVVVVSVA [I13Y], the protein stability index stood at 3.9.

Turning to EKALASILLQDHDRDLDVVVVSVA [I13D], the protein stability index came to 3.12.

Regarding EKALASILLQDHTRDLDVVVVSVA [I13T], the protein stability index worked out at 3.04.
